B1: KDM4C_HUMAN (protein, UniProt Q9H3R0 1-1056, looked up)
Lysine-specific demethylase 4C: MEVAEVESPLNPSCKIMTFRPSMEEFREFNKYLAYMESKGAHRAGLAKVIPPKEWKPRQCYDDIDNLLIPAPIQQMVTGQSGLFTQYNIQKKAMTVKEFRQLANSGKYCTPRYLDYEDLERKYWKNLTFVAPIYGADINGSIYDEGVDEWNIARLNTVLDVVEEECGISIEGVNTPYLYFGMWKTTFAWHTEDMDLYSINYLHFGEPKSWYAIPPEHGKRLERLAQGFFPSSSQGCDAFLRHKMTLISPSVLKKYGIPFDKITQEAGEFMITFPYGYHAGFNHGFNCAESTNFATVRWIDYGKVAKLCTCRKDMVKISMDIFVRKFQPDRYQLWKQGKDIYTIDHTKPTPASTPEVKAWLQRRRKVRKASRSFQCARSTSKRPKADEEEEVSDEVDGAEVPNPDSVTDDLKVSEKSEAAVKLRNTEASSEEESSASRMQVEQNLSDHIKLSGNSCLSTSVTEDIKTEDDKAYAYRSVPSISSEADDSIPLSSGYEKPEKSDPSELSWPKSPESCSSVAESNGVLTEGEESDVESHGNGLEPGEIPAVPSGERNSFKVPSIAEGENKTSKSWRHPLSRPPARSPMTLVKQQAPSDEELPEVLSIEEEVEETESWAKPLIHLWQTKSPNFAAEQEYNATVARMKPHCAICTLLMPYHKPDSSNEENDARWETKLDEVVTSEGKTKPLIPEMCFIYSEENIEYSPPNAFLEEDGTSLLISCAKCCVRVHASCYGIPSHEICDGWLCARCKRNAWTAECCLCNLRGGALKQTKNNKWAHVMCAVAVPEVRFTNVPERTQIDVGRIPLQRLKLKCIFCRHRVKRVSGACIQCSYGRCPASFHVTCAHAAGVLMEPDDWPYVVNITCFRHKVNPNVKSKACEKVISVGQTVITKHRNTRYYSCRVMAVTSQTFYEVMFDDGSFSRDTFPEDIVSRDCLKLGPPAEGEVVQVKWPDGKLYGAKYFGSNIAHMYQVEFEDGSQIAMKREDIYTLDEELPKRVKARFSTASDMRFEDTFYGADIIQGERKRQRVLSSRFKNEYVADPVYRTFLKSSFQKKCQKRQ
B2: ADT2_HUMAN (protein, UniProt P05141 1-298, looked up)
ADP/ATP translocase 2: MTDAAVSFAKDFLAGGVAAAISKTAVAPIERVKLLLQVQHASKQITADKQYKGIIDCVVRIPKEQGVLSFWRGNLANVIRYFPTQALNFAFKDKYKQIFLGGVDKRTQFWLYFAGNLASGGAAGATSLCFVYPLDFARTRLAADVGKAGAEREFRGLGDCLVKIYKSDGIKGLYQGFNVSVQGIIIYRAAYFGIYDTAKGMLPDPKNTHIVISWMIAQTVTAVAGLTSYPFDTVRRRMMMQSGRKGTDIMYTGTLDCWRKIARDEGGKAFFKGAWSNVLRGMGGAFVLVLYDEIKKYT
B3: ECHB_HUMAN (protein, UniProt P55084 34-474, looked up)
Trifunctional enzyme subunit …: AAPAVQTKTKKTLAKPNIRNVVVVDGVRTPFLLSGTSYKDLMPHDLARAALTGLLHRTSVPKEVVDYIIFGTVIQEVKTSNVAREAALGAGFSDKTPAHTVTMACISANQAMTTGVGLIASGQCDVIVAGGVELMSDVPIRHSRKMRKLMLDLNKAKSMGQRLSLISKFRFNFLAPELPAVSEFSTSETMGHSADRLAAAFAVSRLEQDEYALRSHSLAKKAQDEGLLSDVVPFKVPGKDTVTKDNGIRPSSLEQMAKLKPAFIKPYGTVTAANSSFLTDGASAMLIMAEEKALAMGYKPKAYLRDFMYVSQDPKDQLLLGPTYATPKVLEKAGLTMNDIDAFEFHEAFSGQILANFKAMDSDWFAENYMGRKTKVGLPPLEKFNNWGGSLSLGHPFGATGCRLVMAAANRLRKEGGQYGLVAACAAGGQGHAMIVEAYPK
B4: MPCP_HUMAN (protein, UniProt Q00325 50-362, looked up)
Solute carrier family 25 …: AVEEQYSCDYGSGRFFILCGLGGIISCGTTHTALVPLDLVKCRMQVDPQKYKGIFNGFSVTLKEDGVRGLAKGWAPTFLGYSMQGLCKFGFYEVFKVLYSNMLGEENTYLWRTSLYLAASASAEFFADIALAPMEAAKVRIQTQPGYANTLRDAAPKMYKEEGLKAFYKGVAPLWMRQIPYTMMKFACFERTVEALYKFVVPKPRSECSKPEQLVVTFVAGYIAGVFCAIVSHPADSVVSVLNKEKGSSASLVLKRLGFKGVWKGLFARIIMIGTLTALQWFIYDSVKVYFRLPRPPPPEMPESLKKKLGLTQ
B5: ATPA_HUMAN (protein, UniProt P25705 44-553, looked up)
ATP synthase F(1) complex …: QKTGTAEMSSILEERILGADTSVDLEETGRVLSIGDGIARVHGLRNVQAEEMVEFSSGLKGMSLNLEPDNVGVVVFGNDKLIKEGDIVKRTGAIVDVPVGEELLGRVVDALGNAIDGKGPIGSKTRRRVGLKAPGIIPRISVREPMQTGIKAVDSLVPIGRGQRELIIGDRQTGKTSIAIDTIINQKRFNDGSDEKKKLYCIYVAIGQKRSTVAQLVKRLTDADAMKYTIVVSATASDAAPLQYLAPYSGCSMGEYFRDNGKHALIIYDDLSKQAVAYRQMSLLLRRPPGREAYPGDVFYLHSRLLERAAKMNDAFGGGSLTALPVIETQAGDVSAYIPTNVISITDGQIFLETELFYKGIRPAINVGLSVSRVGSAAQTRAMKQVAGTMKLELAQYREVAAFAQFGSDLDAATQQLLSRGVRLTELLKQGQYSPMAIEEQVAVIYAGVRGYLDKLEPSKITKFENAFLSHVVSQHQALLGTIRADGKISEQSDAKLKEIVTNFLAGFEA
B6: THIO_HUMAN (protein, UniProt P10599 2-105, looked up)
Thioredoxin: VKQIESKTAFQEALDAAGDKLVVVDFSATWCGPCKMIKPFFHSLSEKYSNVIFLEVDVDDCQDVASECEVKCMPTFQFFKKGQKVGEFSGANKEKLEATINELV
B7: RBMX_HUMAN (protein, UniProt P38159 1-391, looked up)
RNA-binding motif protein, X …: MVEADRPGKLFIGGLNTETNEKALEAVFGKYGRIVEVLLMKDRETNKSRGFAFVTFESPADAKDAARDMNGKSLDGKAIKVEQATKPSFESGRRGPPPPPRSRGPPRGLRGGRGGSGGTRGPPSRGGHMDDGGYSMNFNMSSSRGPLPVKRGPPPRSGGPPPKRSAPSGPVRSSSGMGGRAPVSRGRDSYGGPPRREPLPSRRDVYLSPRDDGYSTKDSYSSRDYPSSRDTRDYAPPPRDYTYRDYGHSSSRDDYPSRGYSDRDGYGRDRDYSDHPSGGSYRDSYESYGNSRSAPPTRGPPPSYGGSSRYDDYSSSRDGYGGSRDSYSSSRSDLYSSGRDRVGRQERGLPPSMERGYPPPRDSYSSSSRGAPRGGGRGGSRSDRGGGRSRY
B8: EF1A1_HUMAN (protein, UniProt P68104 2-462, looked up)
Elongation factor 1-alpha 1: GKEKTHINIVVIGHVDSGKSTTTGHLIYKCGGIDKRTIEKFEKEAAEMGKGSFKYAWVLDKLKAERERGITIDISLWKFETSKYYVTIIDAPGHRDFIKNMITGTSQADCAVLIVAAGVGEFEAGISKNGQTREHALLAYTLGVKQLIVGVNKMDSTEPPYSQKRYEEIVKEVSTYIKKIGYNPDTVAFVPISGWNGDNMLEPSANMPWFKGWKVTRKDGNASGTTLLEALDCILPPTRPTDKPLRLPLQDVYKIGGIGTVPVGRVETGVLKPGMVVTFAPVNVTTEVKSVEMHHEALSEALPGDNVGFNVKNVSVKDVRRGNVAGDSKNDPPMEAAGFTAQVIILNHPGQISAGYAPVLDCHTAHIACKFAELKEKIDRRSGKKLEDGPKFLKSGDAAIVDMVPGKPMCVESFSDYPPLGRFAVRDMRQTVAVGVIKAVDKKAAGAGKVTKSAQKAQKAK
B9: PAIRB_HUMAN (protein, UniProt Q8NC51 2-408, looked up)
SERPINE1 mRNA-binding protein …: PGHLQEGFGCVVTNRFDQLFDDESDPFEVLKAAENKKKEAGGGGVGGPGAKSAAQAAAQTNSNAAGKQLRKESQKDRKNPLPPSVGVVDKKEETQPPVALKKEGIRRVGRRPDQQLQGEGKIIDRRPERRPPRERRFEKPLEEKGEGGEFSVDRPIIDRPIRGRGGLGRGRGGRGRGMGRGDGFDSRGKREFDRHSGSDRSSFSHYSGLKHEDKRGGSGSHNWGTVKDELTESPKYIQKQISYNYSDLDQSNVTEETPEGEEHHPVADTENKENEVEEVKEEGPKEMTLDEWKAIQNKDRAKVEFNIRKPNEGADGQWKKGFVLHKSKSEEAHAEDSVMDHHFRKPANDITSQLEINFGDLGRPGRGGRGGRGGRGRGGRPNRGSRTDKSSASAPDVDDPEAFPALA
B10: IF4A2_HUMAN (protein, UniProt Q14240 1-407, looked up)
Eukaryotic initiation factor …: MSGGSADYNREHGGPEGMDPDGVIESNWNEIVDNFDDMNLKESLLRGIYAYGFEKPSAIQQRAIIPCIKGYDVIAQAQSGTGKTATFAISILQQLEIEFKETQALVLAPTRELAQQIQKVILALGDYMGATCHACIGGTNVRNEMQKLQAEAPHIVVGTPGRVFDMLNRRYLSPKWIKMFVLDEADEMLSRGFKDQIYEIFQKLNTSIQVVLLSATMPTDVLEVTKKFMRDPIRILVKKEELTLEGIKQFYINVEREEWKLDTLCDLYETLTITQAVIFLNTRRKVDWLTEKMHARDFTVSALHGDMDQKERDVIMREFRSGSSRVLITTDLLARGIDVQQVSLVINYDLPTNRENYIHRIGRGGRFGRKGVAINFVTEEDKRILRDIETFYNTTVEEMPMNVADLI
B11: KDM4A_HUMAN (protein, UniProt O75164 2-1064, looked up)
Lysine-specific demethylase 4A: ASESETLNPSARIMTFYPTMEEFRNFSRYIAYIESQGAHRAGLAKVVPPKEWKPRASYDDIDDLVIPAPIQQLVTGQSGLFTQYNIQKKAMTVREFRKIANSDKYCTPRYSEFEELERKYWKNLTFNPPIYGADVNGTLYEKHVDEWNIGRLRTILDLVEKESGITIEGVNTPYLYFGMWKTSFAWHTEDMDLYSINYLHFGEPKSWYSVPPEHGKRLERLAKGFFPGSAQSCEAFLRHKMTLISPLMLKKYGIPFDKVTQEAGEFMITFPYGYHAGFNHGFNCAESTNFATRRWIEYGKQAVLCSCRKDMVKISMDVFVRKFQPERYKLWKAGKDNTVIDHTLPTPEAAEFLKESELPPRAGNEEECPEEDMEGVEDGEEGDLKTSLAKHRIGTKRHRVCLEIPQEVSQSELFPKEDLSSEQYEMTECPAALAPVRPTHSSVRQVEDGLTFPDYSDSTEVKFEELKNVKLEEEDEEEEQAAAALDLSVNPASVGGRLVFSGSKKKSSSSLGSGSSRDSISSDSETSEPLSCRAQGQTGVLTVHSYAKGDGRVTVGEPCTRKKGSAARSFSERELAEVADEYMFSLEENKKSKGRRQPLSKLPRHHPLVLQECVSDDETSEQLTPEEEAEETEAWAKPLSQLWQNRPPNFEAEKEFNETMAQQAPHCAVCMIFQTYHQVEFGGFNQNCGNASDLAPQKQRTKPLIPEMCFTSTGCSTDINLSTPYLEEDGTSILVSCKKCSVRVHASCYGVPPAKASEDWMCSRCSANALEEDCCLCSLRGGALQRANDDRWVHVSCAVAILEARFVNIAERSPVDVSKIPLPRFKLKCIFCKKRRKRTAGCCVQCSHGRCPTAFHVSCAQAAGVMMQPDDWPFVVFITCFRHKIPNLERAKGALQSITAGQKVISKHKNGRFYQCEVVRLTTETFYEVNFDDGSFSDNLYPEDIVSQDCLQFGPPAEGEVVQVRWTDGQVYGAKFVASHPIQMYQVEFEDGSQLVVKRDDVYTLDEELPKRVKSRLSVASDMRFNEIFTEKEVKQEKKRQRVINSRYREDYIEPALYRAIME

Tested on: KDM4A-I71AzF
Assay: CASI: photo-crosslinking with HEK293T cell extracts, StrepTactin enrichment and LC-MS/MS proteomics;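 also: lysates from HEK293T cells pretreated with a KDM4 inhibitor to raise proteome methylation, affinity-purified after ±UV, gel-resolved, trypsin-digested, with exclusive unique peptides per protein averaged per condition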
Format: binding, human
Conditions: sheet "Final results but with 0.01"

Molecule	Fold change (+UV/-UV)
B1	1.333
B2	0.8333
B3	0
B4	1
B5	1.4
B6	0.5
B7	200
B8	0.9444
B9	0.8571
B10	200
B11	1.184

— paper PMC10540216, “Activity Guided Azide-methyllysine Photo-trapping for Substrate Profiling of Lysine Demethylases” (Journal of the American Chemical Society, 2023)
